In the supplement of paper PMC10567573:

B1: CLCN6 (parent)
chain: MAGCRGSLCCCCRWCCCCGERETR
B2: ETS1 (parent)
chain: YVRDRADLNKDKPVIPAAALAGYT

Variants of: B1
Assay: protein stability index of a GFP-peptide fusion (GPS, HEK-293T) (PSI 1-6); higher = more stable
Conditions: c terminus: a fixed tail appended
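Note: lentivirally expressed fusions sorted by FACS into six bins by GFP to DsRed ratio, PSI derived from sequencing read proportions per bin multiplied by bin number.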

Protein stability index: each site, then its substitutions
R21: E 2.27
E20: G 2.24, C 2.16
T23: C 2.73, M 1.87
C11: G 3.4, N 2.15, L 3.23
M1: N 1.56
R24: H 2.55, M 1.91, N 2.74, G 2.44, P 2.38
A2: Y 1.98, L 1.33, I 2.07
C9: H 3.07, D 1.18
C18: P 1.8, M 1.42, W 3.21
G6: N 1.72, S 1.82
C4: H 2.07
G3: N 1.5, R 2.1
C12: V 1.94, T 2.59, K 1.89, N 2.9
R5: M 1.38

Variants of: B2
Assay: as above
Conditions: c terminus: a fixed tail appended

Protein stability index of substitutions, site by site:
Y23: S 1.52, G 1.73, A 2.15, N 2.34, V 2.13, M 1.89, H 2.18, D 1.91, I 2.53, T 2.26, P 1.47, L 2.58, F 2.21, Q 1.86, E 2.3, K 1.46, C 2.51, R 1.89, W 2.5
G22: I 2.29, P 2.01, E 1.77, M 1.63, Q 2.12, V 2.74, T 2.05, S 1.66, C 2.39, N 2.15, Y 1.69, L 1.85, A 2.8, F 2.21, W 2.55, D 2.53, K 2.18, R 1.69, H 1.63
L20: T 2.12, P 2.41, A 2.06, G 2.02, F 2.8, Y 3.18, H 1.89, R 2.35, W 3.22, M 2.45, S 1.82, V 2.02, K 1.48, I 2.04, C 2.48, N 1.94, E 1.81, D 1.55, Q 2.79
A17: S 2.25, W 3.98, V 1.63, T 2.11, Y 2.86
A21: W 2.75, I 2.42, F 3.51, D 2.4, M 1.45, R 2.07, P 1.65, Y 2.74, N 2.14, H 2.06, Q 1.95, E 2.1, T 2.52, K 2.08, G 1.63, S 2.53, V 2.38, L 3.03
T24: C 2.47, M 2.67, S 1.98, Y 2.11, V 1.74, A 2.37, Q 2.69, H 3.26, E 2.08, W 4.5, P 2.77, G 1.69, L 2.7, D 1.45, R 2.1, K 2.81, I 2.37, F 1.84
A18: E 1.88, I 3.08, R 1.93, F 1.83, T 1.93, G 2.35, P 3.01, N 2.22, W 2.53, C 2.33, K 2.63, L 2.88, D 2.21, Y 2.19, H 2.18, V 1.09, S 2.73, Q 2.84
A19: V 3.93, Y 2.13, H 1.75, M 1.63, Q 2.84, F 3.59, E 1.91, T 2.17, P 2.04, D 2.07, I 2.14, K 2.9, C 1.86, N 2.17, G 2.62, R 2.53, W 2.98, S 1.86, L 1.55
